# Target: Saccharomyces cerevisiae Rsm22 protein, C-terminally His6-tagged (construct MA-S17–K628-HHHHHH) (S. cerevisiae) (UniProt P36056)
# Assay: SEC-MALS; pooled and concentrated first SEC peak (higher oligomeric form); Superdex 200 10/300 GL; 40 mM Tris pH 7.5, 500 mM NaCl, 5% glycerol
substance,measurement,value
"Saccharomyces cerevisiae Rsm22 protein, C-terminally His6-tagged (construct MA-S17–K628-HHHHHH) (from UniProt P36056 17-628) (enzyme)",stoichiometry N,2

# Reference: paper PMC8171064
